Test results taken from the supplement of paper PMC9942255.

Tested on: Bacillus subtilis DB104 (SP-AmyQ fusion secretion)
Assay: AmyQ secretion efficiency, weighted average sort bin (1 = best secretion, 10 = worst) (bin number (weighted average, 1-10)); higher = lower secretion efficiency
Procedure, shortened: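 The secretion score gives the average bin number weighted by read frequency and normalised to beads per bin, with low-abundance sequences excluded. Bins were 10 equally populated green/red fluorescence ratio fractions of occupied ~65 nL alginate beads, sorted by large-particle flow cytometry. The beads held fluorescein-starch and about 0.3 cells each of an amyE-integrated B. subtilis DB104 library fusing designed signal peptides to mature AmyQ, and they were grown about 13 h at room temperature and stained with nile red before sorting and Illumina sequencing.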

Sequence | AmyQ secretion efficiency
MKRLFMKGSLVLFAVVFVFAVKGAPAKAETH | 3.72
MKRLFMKLLTTTASLVLFAVVFVFAVKGAPAKAETH | 2.87
MKRLFMKSMASLVLFAVVFVFAVKGAPAKAETH | 2
MKRLFMKSSKRLFAVVFVFAVKGAPAKAETH | 7.81
MKRLFMKYKRYQKQVVFVFAVKGAPAKAETH | 7.88
MKRLKKTLLIGIMLLTFAPSAFAKQD | 1.92
MKRLKRRKLIGIMLLTFAPSAFAKQD | 4.68
MKRLKVSLRVWMVFLMNWVTPDRKTAAAAVY | 6.85
MKRLLILLLIIIMLLGGTTFAPSAFAKQD | 2
MKRLLLGILCSAAVFLIGAPSRALGAEV | 2.5
MKRLLSSLAISALSLGLLVSAPTASFAAES | 2.75
MKRLLSTLLIGIMLLEDEPSAFAKQD | 1.9
MKRLLSTLLIGIMLLEQQPKAFAKQD | 1.64
MKRLLSTLLIGIMLLFFAGVAFAKQD | 3.63
MKRLLSTLLIGIMLLFFIFFTFAPSAFAKQD | 1.97
MKRLLSTLLIGIMLLITTILVSTLTFAPSAFAKQD | 1.3
MKRLLSTLLIGIMLLKRKRRRAFAKQD | 8.09
MKRLLSTLLIGIMLLPKAPSAFAKQD | 2.61
MKRLLSTLLIGIMLLTFAPSAFAAED | 2.37
MKRLLSTLLIGIMLLTFAPSAFAAQD | 1.6
MKRLLSTLLIGIMLLTFAPSAFAAQK | 1.73

Sequence | AmyQ secretion efficiency
MKRLLSTLLIGIMLLTFAPSAFAAQQ | 1.25
MKRLLSTLLIGIMLLTFAPSAFAKKR | 2.03
MKRLLSTLLIGIMLLTFAPSAFCKQD | 2.6
MKRLLSTLLIGIMLLTFAPSAFGKQD | 1.17
MKRLLSTLLIGIMLLTFAPSAFWKQD | 6.93
MKRLLSTLLIGIMLLTFAPSCFAKQD | 3.09
MKRLLSTLLIGIMLLTFAPSMFAKQD | 2.35
MKRLLSTLLIGIMLLTFAPSPAATVFPVAFAKQD | 1.66
MKRLLSTLLIGIMLLTFAPSSFAKQD | 2.65
MKRLLSTLLIGIMLLTFAPSTFAKQD | 1.72
MKRLLSTLLIGIMLLTFAPSVFAKQD | 1.93
MKRLLSTLLIGIMLLVTFAPSAFAKQD | 2.15
MKRLLSTLLIGITFAPSAFAKQD | 2.73
MKRLLVSLRVWMPDRKTAAAAVY | 6.76
MKRLLVSLRVWMVFLMNWVTPDRKTAAAAEE | 6.3
MKRLLVSLRVWMVFLMNWVTPDRKTAAAAKK | 7.3
MKRLLVSLRVWMVFLMNWVTPDRKTAAAAVD | 7.62
MKRLLVSLRVWMVFLMNWVTPDRKTAAAAVY | 6.49
MKRLLVSLRVWMVFLMNWVTPDRKTAAADED | 6.67
MKRLLVSLRVWMVFLMNWVTPDRKTAAARRK | 7.14
MKRLLVSLRVWMVFLMNWVTPDRKTAADAVY | 5.95

Sequence | AmyQ secretion efficiency
MKRLLVSLRVWMVFLMNWVTPDRKTAAGAVY | 7.15
MKRLLVSLRVWMVFLMNWVTPDRKTAAPAVY | 6.03
MKRLLVSLRVWMVFLMNWVTPDRKTAARAVY | 5.96
MKRLLVSLRVWMVFLMNWVTPDRKTAASAVY | 6.03
MKRLLVSLRVWMVFLMNWVTPDRKTAAYAVY | 7.68
MKRLLVSLRVWMVFLMNWVTPDRKTDAAAVY | 6.85
MKRLLVSLRVWMVFLMNWVTPDRKTEAAAVY | 6.9
MKRLLVSLRVWMVFLMNWVTPDRKTGAAAVY | 6.91
MKRLLVSLRVWMVFLMNWVTPDRKTHAAAVY | 6.55
MKRLLVSLRVWMVFLMNWVTPDRKTKAAAVY | 7.79
MKRLLVSLRVWMVFLMNWVTPDRKTNAAAVY | 6.68
MKRLLVSLRVWMVFLMNWVTPDRKTPAAAVY | 7.55
MKRLLVSLRVWMVFLMNWVTPDRKTQAAAVY | 6.81
MKRLLVSLRVWMVFLMNWVTPDRKTRAAAVY | 6.54
MKRLLVSLRVWMVFLMNWVTPDRKTSAAAVY | 5.14
MKRLLVSLRVWMVFLMNWVTPDRKTTPSGAAAAVY | 6.68
MKRLLVSLRVWMVFLMNWVTPDRKTYAAAVY | 6.89
MKRLLVSLRVWMVFLMNWVTPKRKTAAAAVY | 5.43
MKRLLVSLRVWMVFLMNWVTRKRRKKAAAAVY | 5.91
MKRLLVSLRVWMVFLMNWVTVGRKTAAAAVY | 5.77
